# Results reported in patent US20240082414A1, “HUMAN TUMOR NECROSIS FACTOR ALPHA ANTIBODY GLUCOCORTICOID CONJUGATES” (Eli Lilly and Company, priority 2022, published 2024).
# Tests used:
# [1] = molecular target: human FcγRIIIA_158F (CD16a) extracellular domain (human) (UniProt P08637); test: SPR (Biacore), antibody captured on Protein A, FcγR ECD as analyte, steady state, 25° C.
# [2] = molecular target: human FcγRIIb (CD32b) extracellular domain (human) (UniProt P31994); test: as above
# [3] = molecular target: human FcγRIIA_131H (CD32a) extracellular domain (human) (UniProt P12318); test: as above
# Sequence of human FcγRIIA_131H (CD32a) extracellular domain (human) (P12318 34-217): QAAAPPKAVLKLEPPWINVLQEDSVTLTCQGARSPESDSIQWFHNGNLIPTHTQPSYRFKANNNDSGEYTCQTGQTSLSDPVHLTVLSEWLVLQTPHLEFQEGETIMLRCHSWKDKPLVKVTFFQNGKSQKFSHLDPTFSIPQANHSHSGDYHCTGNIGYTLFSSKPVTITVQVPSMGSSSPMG
# [4] = molecular target: human FcγRIIA_131R (CD32a) extracellular domain (human) (UniProt P12318); test: as above
# Sequence of human FcγRIIA_131R (CD32a) extracellular domain (human) (P12318 34-217 H167R limits assumed): as the sequence (P12318 34-217) above, with H134R counted along it
# [5] = molecular target: human FcγRI (CD64) extracellular domain (human) (UniProt P12314); test: SPR (Biacore), antibody captured on Protein A, FcγR ECD as analyte, 25° C.
# Sequence of human FcγRI (CD64) extracellular domain (human) (P12314 16-292): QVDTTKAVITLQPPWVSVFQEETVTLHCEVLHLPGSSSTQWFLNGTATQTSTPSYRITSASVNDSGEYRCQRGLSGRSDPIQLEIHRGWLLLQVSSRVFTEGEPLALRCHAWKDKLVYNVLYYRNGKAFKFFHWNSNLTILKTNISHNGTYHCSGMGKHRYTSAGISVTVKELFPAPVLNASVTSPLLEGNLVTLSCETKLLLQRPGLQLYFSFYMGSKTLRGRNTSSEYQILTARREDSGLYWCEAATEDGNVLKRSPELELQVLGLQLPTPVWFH
# Sequence of human FcγRIIb (CD32b) extracellular domain (human) (P31994 43-217): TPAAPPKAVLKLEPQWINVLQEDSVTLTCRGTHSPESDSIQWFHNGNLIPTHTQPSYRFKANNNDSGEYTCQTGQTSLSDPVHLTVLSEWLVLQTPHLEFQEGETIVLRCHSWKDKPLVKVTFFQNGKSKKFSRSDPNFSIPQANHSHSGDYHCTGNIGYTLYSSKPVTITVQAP
# Sequence of human FcγRIIIA_158F (CD16a) extracellular domain (human) (P08637 17-208): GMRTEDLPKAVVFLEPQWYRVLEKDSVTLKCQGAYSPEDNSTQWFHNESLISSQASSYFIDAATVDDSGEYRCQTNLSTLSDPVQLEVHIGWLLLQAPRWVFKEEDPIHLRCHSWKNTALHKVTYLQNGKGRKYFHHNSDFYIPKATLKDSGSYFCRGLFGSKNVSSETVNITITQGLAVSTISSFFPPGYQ
substance,measurement,setting,value
human IgG1 isotype control antibody,Kd,[1],820 nM
same,Kd,[2],2810 nM
same,Kd,[3],570 nM
same,Kd,[4],570 nM
same,Kd,[5],0.0479 nM
